According to patent publication US10562947B2, “Compositions and methods for preventing or treating diseases, conditions or processes characterized by aberrant fibroblast proliferation and extracellular matrix deposition” (MOERAE MATRIX, INC., priority 2011, dated 2020):

What was measured:
Assay in all cases: Kinase Profiling Assay
Format in all cases: biochemical
Conditions in all cases: 100 μM peptide
[1] = target: MSK1(h) (Homo sapiens, UniProt O75582)
Method in brief: (§1)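 Read-out is kinase activity, measured twice per kinase, across 266 human kinases exposed to MK2 inhibitory peptides in a specificity screen.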

[2] = target: T1, TBK1(h) (Homo sapiens, UniProt Q9UHD2)
T1 sequence (Q9UHD2 1-729): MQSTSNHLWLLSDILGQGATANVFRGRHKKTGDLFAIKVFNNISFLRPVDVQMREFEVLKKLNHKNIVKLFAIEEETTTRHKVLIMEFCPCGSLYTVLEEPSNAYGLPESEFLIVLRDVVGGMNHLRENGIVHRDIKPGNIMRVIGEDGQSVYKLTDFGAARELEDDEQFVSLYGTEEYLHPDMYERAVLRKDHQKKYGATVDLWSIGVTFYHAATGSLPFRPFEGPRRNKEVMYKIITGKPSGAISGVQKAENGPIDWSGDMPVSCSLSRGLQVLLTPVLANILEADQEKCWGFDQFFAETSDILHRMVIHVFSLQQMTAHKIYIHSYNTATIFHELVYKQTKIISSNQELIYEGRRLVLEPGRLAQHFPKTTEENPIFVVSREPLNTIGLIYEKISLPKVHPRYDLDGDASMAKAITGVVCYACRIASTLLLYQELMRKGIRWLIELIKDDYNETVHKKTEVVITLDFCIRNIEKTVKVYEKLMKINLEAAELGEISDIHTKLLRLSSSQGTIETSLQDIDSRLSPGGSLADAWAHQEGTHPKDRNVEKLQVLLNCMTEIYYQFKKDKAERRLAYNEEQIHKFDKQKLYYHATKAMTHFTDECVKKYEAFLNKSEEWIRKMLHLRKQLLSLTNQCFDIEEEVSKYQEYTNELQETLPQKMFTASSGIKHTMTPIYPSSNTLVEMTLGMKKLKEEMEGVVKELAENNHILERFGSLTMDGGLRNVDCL
Method in brief: as §1

[3] = target: T2, PKG1α(h) (Homo sapiens, UniProt Q13976)
T2 construct: purchased Millipore (IC50 Profiler Express service)
T2 sequence (Q13976 1-671): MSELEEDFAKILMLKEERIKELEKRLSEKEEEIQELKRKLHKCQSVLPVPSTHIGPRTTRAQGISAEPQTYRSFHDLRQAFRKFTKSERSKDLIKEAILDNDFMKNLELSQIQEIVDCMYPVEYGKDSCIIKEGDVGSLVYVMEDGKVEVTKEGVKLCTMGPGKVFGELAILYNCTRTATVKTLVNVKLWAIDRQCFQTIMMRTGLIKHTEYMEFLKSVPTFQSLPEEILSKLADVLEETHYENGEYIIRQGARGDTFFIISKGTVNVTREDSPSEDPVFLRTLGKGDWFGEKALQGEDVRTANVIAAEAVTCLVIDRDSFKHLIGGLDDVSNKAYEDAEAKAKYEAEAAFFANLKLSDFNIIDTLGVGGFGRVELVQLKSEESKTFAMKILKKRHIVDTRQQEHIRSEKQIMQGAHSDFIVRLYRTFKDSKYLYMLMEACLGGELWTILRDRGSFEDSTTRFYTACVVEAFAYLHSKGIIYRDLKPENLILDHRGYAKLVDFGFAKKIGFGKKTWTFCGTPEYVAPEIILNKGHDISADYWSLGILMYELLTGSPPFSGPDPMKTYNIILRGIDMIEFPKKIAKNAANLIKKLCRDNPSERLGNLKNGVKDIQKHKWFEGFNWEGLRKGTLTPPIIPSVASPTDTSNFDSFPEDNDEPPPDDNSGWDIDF
Method in brief: as §1

[4] = target: Abl(T315I)(h) (Homo sapiens, UniProt P00519, T315I)
Method in brief: as §1

[5] = target: T3, TAO2(h) (Homo sapiens, UniProt Q9UL54)
T3 sequence (Q9UL54 1-1235): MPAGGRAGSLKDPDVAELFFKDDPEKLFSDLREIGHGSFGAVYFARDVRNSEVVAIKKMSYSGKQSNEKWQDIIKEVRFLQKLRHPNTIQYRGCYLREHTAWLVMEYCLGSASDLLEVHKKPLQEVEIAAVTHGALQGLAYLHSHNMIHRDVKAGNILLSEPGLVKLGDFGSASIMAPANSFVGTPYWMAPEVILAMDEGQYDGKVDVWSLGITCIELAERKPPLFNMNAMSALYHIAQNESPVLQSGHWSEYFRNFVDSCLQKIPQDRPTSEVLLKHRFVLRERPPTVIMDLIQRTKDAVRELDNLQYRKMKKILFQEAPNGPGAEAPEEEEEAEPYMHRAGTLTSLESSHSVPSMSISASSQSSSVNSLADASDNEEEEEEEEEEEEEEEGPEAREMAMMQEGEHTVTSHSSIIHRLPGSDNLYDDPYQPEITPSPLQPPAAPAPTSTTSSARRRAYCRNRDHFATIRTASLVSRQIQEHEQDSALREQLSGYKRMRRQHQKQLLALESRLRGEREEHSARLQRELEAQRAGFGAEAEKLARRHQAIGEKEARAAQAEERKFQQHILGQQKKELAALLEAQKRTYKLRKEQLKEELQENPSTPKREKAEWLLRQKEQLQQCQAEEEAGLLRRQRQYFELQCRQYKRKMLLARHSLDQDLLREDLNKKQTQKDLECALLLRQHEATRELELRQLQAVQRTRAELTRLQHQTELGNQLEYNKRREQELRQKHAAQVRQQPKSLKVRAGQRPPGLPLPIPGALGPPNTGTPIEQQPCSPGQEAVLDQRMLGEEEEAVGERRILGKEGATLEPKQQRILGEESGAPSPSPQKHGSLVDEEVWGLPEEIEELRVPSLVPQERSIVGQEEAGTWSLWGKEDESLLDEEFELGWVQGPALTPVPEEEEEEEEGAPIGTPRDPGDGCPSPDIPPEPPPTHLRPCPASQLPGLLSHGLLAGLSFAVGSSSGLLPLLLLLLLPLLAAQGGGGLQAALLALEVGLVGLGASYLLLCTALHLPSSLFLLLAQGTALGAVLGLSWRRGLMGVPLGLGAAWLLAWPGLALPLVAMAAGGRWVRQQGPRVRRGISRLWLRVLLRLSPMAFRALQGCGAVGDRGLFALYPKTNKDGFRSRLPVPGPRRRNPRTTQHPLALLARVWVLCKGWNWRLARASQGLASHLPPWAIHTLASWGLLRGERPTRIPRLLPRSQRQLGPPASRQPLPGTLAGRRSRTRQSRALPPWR
Method in brief: as §1

[6] = target: Rsk3(h) (Homo sapiens, UniProt Q15349)
Rsk3(h), sequence (Q15349 whole entry): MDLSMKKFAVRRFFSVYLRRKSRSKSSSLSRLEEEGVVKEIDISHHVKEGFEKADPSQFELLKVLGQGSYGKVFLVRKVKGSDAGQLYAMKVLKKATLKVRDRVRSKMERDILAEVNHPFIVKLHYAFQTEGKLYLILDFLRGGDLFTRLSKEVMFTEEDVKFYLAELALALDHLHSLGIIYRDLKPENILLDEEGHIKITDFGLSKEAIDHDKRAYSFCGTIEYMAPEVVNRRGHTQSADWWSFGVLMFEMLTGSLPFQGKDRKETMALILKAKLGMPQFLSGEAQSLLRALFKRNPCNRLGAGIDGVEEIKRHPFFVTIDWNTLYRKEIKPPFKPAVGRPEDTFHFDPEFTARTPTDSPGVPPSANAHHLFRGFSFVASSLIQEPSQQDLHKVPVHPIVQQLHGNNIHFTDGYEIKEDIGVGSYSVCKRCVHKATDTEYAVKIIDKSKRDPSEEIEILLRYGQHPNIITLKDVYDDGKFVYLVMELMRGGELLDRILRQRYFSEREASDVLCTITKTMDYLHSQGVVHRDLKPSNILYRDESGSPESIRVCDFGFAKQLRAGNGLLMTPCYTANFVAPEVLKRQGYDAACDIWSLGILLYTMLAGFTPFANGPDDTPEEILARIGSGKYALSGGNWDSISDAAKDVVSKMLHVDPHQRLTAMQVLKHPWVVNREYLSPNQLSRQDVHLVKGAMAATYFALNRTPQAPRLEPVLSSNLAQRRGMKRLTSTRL
Method in brief: as §1

MSK1(h), sequence (O75582 whole entry): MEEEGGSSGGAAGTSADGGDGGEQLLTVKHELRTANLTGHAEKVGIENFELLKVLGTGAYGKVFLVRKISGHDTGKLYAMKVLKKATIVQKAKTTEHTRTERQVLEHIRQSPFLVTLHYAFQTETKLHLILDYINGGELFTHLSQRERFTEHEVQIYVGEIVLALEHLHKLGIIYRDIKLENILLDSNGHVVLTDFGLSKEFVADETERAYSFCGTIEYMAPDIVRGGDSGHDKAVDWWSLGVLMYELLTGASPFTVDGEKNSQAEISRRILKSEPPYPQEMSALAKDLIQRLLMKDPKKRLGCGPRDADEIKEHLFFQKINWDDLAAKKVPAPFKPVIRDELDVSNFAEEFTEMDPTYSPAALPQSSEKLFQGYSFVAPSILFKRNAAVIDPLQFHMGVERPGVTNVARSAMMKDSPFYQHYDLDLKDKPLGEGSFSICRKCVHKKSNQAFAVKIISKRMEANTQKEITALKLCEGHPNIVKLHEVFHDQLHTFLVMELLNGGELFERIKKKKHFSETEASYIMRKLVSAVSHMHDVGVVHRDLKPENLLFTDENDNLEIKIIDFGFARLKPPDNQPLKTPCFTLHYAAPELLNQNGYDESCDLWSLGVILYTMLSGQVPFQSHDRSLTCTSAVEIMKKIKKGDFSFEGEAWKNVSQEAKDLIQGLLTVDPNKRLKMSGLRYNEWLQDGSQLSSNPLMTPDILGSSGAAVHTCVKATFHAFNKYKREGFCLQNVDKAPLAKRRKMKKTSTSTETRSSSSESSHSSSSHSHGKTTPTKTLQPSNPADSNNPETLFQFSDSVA

| Sequence | MSK1(h) % activity [1] [%] | TBK1(h) % activity [2] [%] | PKG1α(h) % activity [3] [%] | Abl(T315I)(h) % activity [4] [%] | TAO2(h) % activity [5] [%] | Rsk3(h) % activity [6] [%] |
| --- | --- | --- | --- | --- | --- | --- |
| FAKLAARLYRKALARQLGVAA [MMI-0300] | 32 | 37 | 64 | 97 | 70 | 76 |
| HRRIKAWLKKIKALARQLGVAA (Mammalian) [MMI-0500] | 8 | 16 | 25 | 16 | 15 | 23 |
| KAFAKLAARLYRKALARQLGVAA [MMI-0400] | 28 | 39 | 58 |  | 74 | 71 |
| YARAAARQARAKALNRQLGVA (Mammalian) [MMI-0200] | 50 | 98 | 70 | 108 | 93 |  |
